Data taken from publication PMC5493759, “Neurovascular EGFL7 regulates adult neurogenesis in the subventricular zone and thereby affects olfactory perception” (Nature Communications, 2017).

Legend:
Assay in all cases: co-IP; Flag-tagged EGFL7 co-expressed with V5-tagged Notch ECDs or Notch1-ECD deletion mutants in HEK293; lysate immunoprecipitated with Immunosorb A overnight at 4 °C; quantitative western blot (Odyssey); n=3
[1] = biological target: T1, V5-tagged Notch2 extracellular domain (UniProt O35516 26-1679); conditions: partners not purified
T1 construct: Notch2, extracellular domain; source: HEK293, transiently transfected, in lysate

[2] = biological target: T2, V5-tagged Notch3 extracellular domain (UniProt Q61982 40-1643); conditions: partners not purified
T2 construct: Notch3, extracellular domain; source: HEK293, transiently transfected, in lysate

[3] = biological target: T3, V5-tagged Notch4 extracellular domain (UniProt P31695 21-1443); conditions: partners not purified
T3 construct: Notch4, extracellular domain; source: HEK293, transiently transfected, in lysate
T3 sequence (looked up): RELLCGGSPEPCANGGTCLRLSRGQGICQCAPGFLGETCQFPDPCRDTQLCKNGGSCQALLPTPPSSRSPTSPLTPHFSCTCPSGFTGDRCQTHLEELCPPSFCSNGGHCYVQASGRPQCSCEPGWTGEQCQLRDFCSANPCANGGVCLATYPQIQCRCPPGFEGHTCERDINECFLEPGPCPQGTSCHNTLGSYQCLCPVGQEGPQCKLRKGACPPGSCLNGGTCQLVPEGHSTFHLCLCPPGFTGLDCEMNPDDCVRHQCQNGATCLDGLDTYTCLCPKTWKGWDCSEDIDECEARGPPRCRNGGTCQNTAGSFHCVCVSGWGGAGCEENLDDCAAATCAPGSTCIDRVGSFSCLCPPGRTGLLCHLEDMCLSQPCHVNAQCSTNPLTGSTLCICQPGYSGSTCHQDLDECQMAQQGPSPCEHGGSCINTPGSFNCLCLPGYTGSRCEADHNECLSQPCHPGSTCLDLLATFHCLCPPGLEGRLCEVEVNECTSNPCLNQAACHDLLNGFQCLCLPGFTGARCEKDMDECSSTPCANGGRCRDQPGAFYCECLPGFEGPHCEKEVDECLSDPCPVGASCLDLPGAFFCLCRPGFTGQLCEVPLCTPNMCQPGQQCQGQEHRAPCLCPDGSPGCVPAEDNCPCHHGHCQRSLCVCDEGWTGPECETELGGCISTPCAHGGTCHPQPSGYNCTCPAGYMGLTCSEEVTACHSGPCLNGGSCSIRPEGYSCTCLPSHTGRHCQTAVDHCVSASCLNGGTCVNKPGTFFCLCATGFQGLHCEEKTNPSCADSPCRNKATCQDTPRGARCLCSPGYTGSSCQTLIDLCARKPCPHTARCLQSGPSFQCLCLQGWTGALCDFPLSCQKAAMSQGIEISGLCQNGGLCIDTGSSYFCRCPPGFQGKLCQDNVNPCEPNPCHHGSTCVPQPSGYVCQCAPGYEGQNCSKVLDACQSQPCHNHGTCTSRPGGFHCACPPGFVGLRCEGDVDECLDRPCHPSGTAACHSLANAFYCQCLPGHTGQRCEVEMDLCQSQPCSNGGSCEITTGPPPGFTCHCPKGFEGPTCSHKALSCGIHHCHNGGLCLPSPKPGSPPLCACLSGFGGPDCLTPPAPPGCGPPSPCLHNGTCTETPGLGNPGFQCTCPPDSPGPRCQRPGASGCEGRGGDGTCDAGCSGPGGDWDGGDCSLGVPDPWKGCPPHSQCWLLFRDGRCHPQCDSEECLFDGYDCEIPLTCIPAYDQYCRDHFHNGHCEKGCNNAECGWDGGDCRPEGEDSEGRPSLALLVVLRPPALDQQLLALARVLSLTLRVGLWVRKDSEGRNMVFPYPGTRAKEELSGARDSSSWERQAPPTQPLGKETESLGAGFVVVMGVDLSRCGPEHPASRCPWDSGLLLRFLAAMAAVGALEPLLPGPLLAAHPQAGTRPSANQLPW

[4] = biological target: V5-tagged Notch1-ECD deletion mutant Notch1-Δ8 (UniProt Q01705)
[5] = biological target: V5-tagged Notch1-ECD deletion mutant Notch1-Δ5–10 (UniProt Q01705)
[6] = biological target: V5-tagged Notch1-ECD deletion mutant Notch1-Δ11+12 (UniProt Q01705)
V5-tagged Notch1-ECD deletion mutant Notch1-Δ11+12, sequence (Q01705 19-1725, stated change not applied): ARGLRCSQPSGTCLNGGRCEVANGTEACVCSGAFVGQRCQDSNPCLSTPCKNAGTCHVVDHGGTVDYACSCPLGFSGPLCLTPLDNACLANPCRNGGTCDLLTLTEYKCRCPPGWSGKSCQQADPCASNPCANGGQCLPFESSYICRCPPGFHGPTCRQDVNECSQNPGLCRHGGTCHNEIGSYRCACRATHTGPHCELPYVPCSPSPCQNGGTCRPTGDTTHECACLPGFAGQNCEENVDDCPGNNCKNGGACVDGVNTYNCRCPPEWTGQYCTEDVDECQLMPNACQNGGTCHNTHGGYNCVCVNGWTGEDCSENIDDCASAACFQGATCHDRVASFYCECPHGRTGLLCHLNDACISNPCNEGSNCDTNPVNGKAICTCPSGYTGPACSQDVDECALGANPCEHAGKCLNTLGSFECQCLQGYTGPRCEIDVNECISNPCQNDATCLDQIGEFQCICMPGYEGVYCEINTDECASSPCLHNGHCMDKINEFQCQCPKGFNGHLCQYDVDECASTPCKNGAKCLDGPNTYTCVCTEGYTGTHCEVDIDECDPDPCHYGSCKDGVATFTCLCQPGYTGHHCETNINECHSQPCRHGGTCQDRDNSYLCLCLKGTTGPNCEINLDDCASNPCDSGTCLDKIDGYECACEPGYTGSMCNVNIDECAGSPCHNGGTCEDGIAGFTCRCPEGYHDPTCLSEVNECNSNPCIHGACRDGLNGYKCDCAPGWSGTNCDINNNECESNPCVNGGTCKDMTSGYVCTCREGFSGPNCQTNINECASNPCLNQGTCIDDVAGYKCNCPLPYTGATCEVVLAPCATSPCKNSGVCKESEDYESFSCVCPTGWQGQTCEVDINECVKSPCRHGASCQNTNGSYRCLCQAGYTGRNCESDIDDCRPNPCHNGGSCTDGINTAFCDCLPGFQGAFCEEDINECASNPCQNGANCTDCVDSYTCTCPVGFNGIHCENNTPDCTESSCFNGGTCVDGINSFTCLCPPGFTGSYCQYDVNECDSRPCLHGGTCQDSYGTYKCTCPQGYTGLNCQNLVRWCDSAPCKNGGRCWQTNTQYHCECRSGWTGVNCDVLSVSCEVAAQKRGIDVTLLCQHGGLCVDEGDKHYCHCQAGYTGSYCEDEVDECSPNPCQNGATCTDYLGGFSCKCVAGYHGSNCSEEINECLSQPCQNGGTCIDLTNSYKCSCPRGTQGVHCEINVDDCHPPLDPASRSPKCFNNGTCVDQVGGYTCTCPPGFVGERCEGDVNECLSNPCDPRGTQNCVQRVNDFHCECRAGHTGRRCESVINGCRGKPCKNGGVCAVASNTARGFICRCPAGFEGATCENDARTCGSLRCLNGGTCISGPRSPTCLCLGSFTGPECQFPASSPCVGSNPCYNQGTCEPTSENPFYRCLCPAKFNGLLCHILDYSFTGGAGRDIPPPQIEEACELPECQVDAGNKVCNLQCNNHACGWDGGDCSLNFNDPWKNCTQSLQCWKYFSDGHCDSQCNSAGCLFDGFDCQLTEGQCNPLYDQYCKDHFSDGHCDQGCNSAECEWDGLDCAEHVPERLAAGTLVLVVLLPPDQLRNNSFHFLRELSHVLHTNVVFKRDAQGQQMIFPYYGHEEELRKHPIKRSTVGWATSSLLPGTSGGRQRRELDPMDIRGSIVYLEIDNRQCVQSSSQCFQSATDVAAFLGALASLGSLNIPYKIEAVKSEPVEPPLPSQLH

T1 sequence (O35516 26-1679): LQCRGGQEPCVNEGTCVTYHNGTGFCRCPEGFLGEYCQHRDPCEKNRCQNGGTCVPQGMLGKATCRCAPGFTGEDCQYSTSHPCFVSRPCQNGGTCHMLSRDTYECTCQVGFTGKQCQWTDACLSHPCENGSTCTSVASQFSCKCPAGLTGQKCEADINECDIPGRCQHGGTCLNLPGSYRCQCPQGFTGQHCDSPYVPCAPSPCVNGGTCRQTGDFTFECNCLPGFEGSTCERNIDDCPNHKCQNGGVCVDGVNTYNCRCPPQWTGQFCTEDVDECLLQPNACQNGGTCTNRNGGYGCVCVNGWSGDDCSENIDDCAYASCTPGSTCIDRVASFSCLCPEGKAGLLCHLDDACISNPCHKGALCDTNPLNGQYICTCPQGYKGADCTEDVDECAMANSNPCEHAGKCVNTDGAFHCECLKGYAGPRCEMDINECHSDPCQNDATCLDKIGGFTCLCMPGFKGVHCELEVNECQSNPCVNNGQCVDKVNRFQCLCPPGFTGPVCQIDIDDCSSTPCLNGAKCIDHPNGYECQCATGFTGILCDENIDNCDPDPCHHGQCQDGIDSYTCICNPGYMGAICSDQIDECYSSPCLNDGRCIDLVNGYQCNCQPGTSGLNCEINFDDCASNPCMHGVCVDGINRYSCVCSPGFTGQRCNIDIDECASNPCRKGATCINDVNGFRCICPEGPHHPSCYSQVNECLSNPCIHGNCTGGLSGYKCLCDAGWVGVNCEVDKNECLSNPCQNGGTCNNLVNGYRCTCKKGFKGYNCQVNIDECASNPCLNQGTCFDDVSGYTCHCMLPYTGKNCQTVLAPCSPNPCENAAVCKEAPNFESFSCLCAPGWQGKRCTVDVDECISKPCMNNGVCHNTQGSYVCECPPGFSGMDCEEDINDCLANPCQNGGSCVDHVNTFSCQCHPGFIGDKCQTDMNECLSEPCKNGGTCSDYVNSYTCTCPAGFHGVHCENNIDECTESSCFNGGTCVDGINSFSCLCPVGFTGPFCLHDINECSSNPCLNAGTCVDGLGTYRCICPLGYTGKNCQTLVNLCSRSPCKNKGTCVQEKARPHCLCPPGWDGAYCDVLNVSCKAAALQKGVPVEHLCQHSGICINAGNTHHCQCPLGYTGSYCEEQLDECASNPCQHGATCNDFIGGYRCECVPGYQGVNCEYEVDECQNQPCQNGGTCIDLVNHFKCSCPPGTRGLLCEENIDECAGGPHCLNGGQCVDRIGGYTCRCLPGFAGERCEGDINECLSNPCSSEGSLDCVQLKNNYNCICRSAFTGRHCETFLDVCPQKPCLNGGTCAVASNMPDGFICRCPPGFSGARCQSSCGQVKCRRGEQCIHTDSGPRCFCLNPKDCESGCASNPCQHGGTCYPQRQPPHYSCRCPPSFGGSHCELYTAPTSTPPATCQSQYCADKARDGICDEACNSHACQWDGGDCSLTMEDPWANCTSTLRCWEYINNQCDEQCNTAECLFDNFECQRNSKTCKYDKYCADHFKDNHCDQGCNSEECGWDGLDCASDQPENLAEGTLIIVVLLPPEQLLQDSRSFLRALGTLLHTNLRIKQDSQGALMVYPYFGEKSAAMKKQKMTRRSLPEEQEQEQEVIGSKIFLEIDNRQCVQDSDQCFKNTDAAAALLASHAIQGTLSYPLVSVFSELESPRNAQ
T2 sequence (Q61982 40-1643): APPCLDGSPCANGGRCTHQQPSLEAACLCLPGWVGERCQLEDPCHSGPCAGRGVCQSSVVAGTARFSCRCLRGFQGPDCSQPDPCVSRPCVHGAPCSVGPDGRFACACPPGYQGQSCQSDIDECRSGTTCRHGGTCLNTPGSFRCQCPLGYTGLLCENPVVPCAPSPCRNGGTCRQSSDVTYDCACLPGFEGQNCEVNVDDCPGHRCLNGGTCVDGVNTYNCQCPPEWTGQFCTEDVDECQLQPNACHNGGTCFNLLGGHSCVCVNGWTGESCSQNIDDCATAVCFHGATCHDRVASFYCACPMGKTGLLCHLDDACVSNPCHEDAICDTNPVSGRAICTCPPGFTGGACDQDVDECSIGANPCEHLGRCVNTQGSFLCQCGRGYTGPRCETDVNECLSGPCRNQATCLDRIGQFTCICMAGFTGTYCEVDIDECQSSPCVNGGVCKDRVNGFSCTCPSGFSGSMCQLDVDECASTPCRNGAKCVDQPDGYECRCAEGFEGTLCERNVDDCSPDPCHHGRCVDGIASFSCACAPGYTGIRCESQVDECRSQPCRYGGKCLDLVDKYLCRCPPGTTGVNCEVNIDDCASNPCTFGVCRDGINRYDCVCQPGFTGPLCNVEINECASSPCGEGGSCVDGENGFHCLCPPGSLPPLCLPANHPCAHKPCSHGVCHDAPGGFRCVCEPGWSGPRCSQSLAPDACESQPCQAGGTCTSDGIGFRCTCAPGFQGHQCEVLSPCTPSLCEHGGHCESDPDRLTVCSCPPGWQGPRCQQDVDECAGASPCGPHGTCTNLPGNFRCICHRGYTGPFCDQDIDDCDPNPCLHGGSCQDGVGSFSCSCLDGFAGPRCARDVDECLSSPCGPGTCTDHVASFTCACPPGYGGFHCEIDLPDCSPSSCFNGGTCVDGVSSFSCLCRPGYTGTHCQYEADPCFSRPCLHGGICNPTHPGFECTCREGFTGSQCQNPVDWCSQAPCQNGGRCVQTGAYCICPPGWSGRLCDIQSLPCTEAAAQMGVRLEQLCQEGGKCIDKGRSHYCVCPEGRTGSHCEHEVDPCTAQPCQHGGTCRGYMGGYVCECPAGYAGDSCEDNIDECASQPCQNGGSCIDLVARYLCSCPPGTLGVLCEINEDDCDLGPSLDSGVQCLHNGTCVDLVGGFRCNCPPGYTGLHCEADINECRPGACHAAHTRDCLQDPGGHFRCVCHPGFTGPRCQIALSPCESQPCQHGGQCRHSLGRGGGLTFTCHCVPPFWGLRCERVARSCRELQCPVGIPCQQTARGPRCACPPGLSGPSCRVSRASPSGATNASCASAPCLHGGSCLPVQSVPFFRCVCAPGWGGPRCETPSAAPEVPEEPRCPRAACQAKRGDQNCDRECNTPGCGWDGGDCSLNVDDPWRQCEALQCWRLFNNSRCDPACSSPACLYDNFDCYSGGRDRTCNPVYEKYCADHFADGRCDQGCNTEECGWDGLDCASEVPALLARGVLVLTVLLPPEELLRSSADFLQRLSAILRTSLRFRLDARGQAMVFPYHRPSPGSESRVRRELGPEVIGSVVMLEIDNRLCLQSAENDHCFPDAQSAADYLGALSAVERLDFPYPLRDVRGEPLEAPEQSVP
V5-tagged Notch1-ECD deletion mutant Notch1-Δ5–10, sequence (Q01705 19-1725, stated change not applied): as the sequence (Q01705 19-1725, stated change not applied) above
V5-tagged Notch1-ECD deletion mutant Notch1-Δ8, sequence (Q01705 19-1725, stated change not applied): as above

B1: Flag-tagged EGFL7 (epidermal growth factor-like protein 7) (natural protein, UniProt Q9QXT5 22-275, looked up)
chain: EHVYRPSRRVCTVGISGGSISETFVQRVYQPYLTTCDGHRACSTYRTIYRTAYRRSPGVTPARPRYACCPGWKRTSGLPGACGAAICQPPCGNGGSCIRPGHCRCPVGWQGDTCQTDVDECSTGEASCPQRCVNTVGSYWCQGWEGQSPSADGTRCLSKEGPSPVAPNPTAGVDSMAREEVYRLQARVDVLEQKLQLVLAPLHSLASRSTEHGLQDPGSLLAHSFQQLDRIDSLSEQVSFLEEHLGSCSCKKDL
notes: epidermal growth factor-like protein 7 (EGFL7); the same molecule is used here; source: HEK293, transiently transfected, in lysate
[1]
  binding relative to Notch1-ECD: ~76%
[2]
  binding relative to Notch1-ECD: ~41%
[3]
  binding relative to Notch1-ECD: ~35%
[4]
  change in binding relative to Notch1-ECD: -28%
[5]
  change in binding relative to Notch1-ECD: -18%
[6]
  change in binding relative to Notch1-ECD: -26%
